Drawing on article PMC6810841, this text covers reduction of recruitment against BicDR1 for one substance.

The target in this assay is BicDR1 E165R/E167K-GFP (mouse) (UniProt A0JNT9).
Sequence of UniProt A0JNT9 (A0JNT9 whole entry E165R/E167K): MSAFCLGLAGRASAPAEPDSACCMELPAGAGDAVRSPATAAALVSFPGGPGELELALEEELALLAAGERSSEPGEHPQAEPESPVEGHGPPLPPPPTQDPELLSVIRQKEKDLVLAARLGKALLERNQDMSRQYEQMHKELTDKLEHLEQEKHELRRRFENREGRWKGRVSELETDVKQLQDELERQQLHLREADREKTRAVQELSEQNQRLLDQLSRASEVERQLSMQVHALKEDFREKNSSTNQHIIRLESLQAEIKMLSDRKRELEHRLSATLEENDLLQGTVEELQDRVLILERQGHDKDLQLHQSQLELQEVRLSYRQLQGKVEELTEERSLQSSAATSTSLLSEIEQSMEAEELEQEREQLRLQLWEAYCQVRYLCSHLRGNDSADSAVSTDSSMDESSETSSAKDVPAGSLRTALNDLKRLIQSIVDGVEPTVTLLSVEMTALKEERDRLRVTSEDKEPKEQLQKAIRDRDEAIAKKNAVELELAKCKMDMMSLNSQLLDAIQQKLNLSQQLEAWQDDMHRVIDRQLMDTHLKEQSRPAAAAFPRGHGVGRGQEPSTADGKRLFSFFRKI

As for “dynein long tail (SNAP-DYNC1H1 1-1,074-GST with associated chains) (from UniProt Q14204;O43237;P63172;P63167;Q9NP97) (complex)”, the reduction of recruitment against BicDR1 is 50%.
